Assay results published in patent US9938510B2, “Photobacterium sp. alpha-2-6-sialyltransferase variants” (The Regents of the University of California, priority 2014, dated 2018).

B1: Psp26ST(15-501)-His6: recombinant Photobacterium sp. JH-ISH-224 α2-6-sialyltransferase, residues 15-501, C-terminal His6, wild-type; SEQ ID NO: 23 (protein)
chain: CNNSEENTQSIIKNDINKTIIDEEYVNLEPINQSNISFTKHSWVQTCGTQQLLTEQNKESISLSVVAPRLDDDEKYCFDFNGVSNKGEKYITKVTLNVVAPSLEVYVDHASLPTLQQLMDIIKSEEENPTAQRYIAWGRIVPTDEQMKELNITSFALINNHTPADLVQEIVKQAQTKHRLNVKLSSNTAHSFDNLVPILKELNSFNNVTVTNIDLYDDGSAEYVNLYNWRDTLNKTDNLKIGKDYLEDVINGINEDTSNTGTSSVYNWQKLYPANYHFLRKDYLTLEPSLHELRDYIGDSLKQMQWDGFKKFNSKQQELFLSIVNFDKQKLQNEYNSSNLPNFVFTGTTVWAGNHEREYYAKQQINVINNAINESSPHYLGNSYDLFFKGHPGGGIINTLIMQNYPSMVDIPSKISFEVLMMTDMLPDAVAGIASSLYFTIPAEKIKFIVFTSTETITDRETALRSPLVQVMIKLGIVKEENVLFWA
modifications: C-terminal His6; Synthetic Psp26ST(15-501) WILD TYPE
B2: A366G: Photobacterium sp. JH-ISH-224 α2-6-sialyltransferase residues 15-501, A366G point mutation, C-terminal His6; SEQ ID NO: 2 (protein)
chain: CNNSEENTQSIIKNDINKTIIDEEYVNLEPINQSNISFTKHSWVQTCGTQQLLTEQNKESISLSVVAPRLDDDEKYCFDFNGVSNKGEKYITKVTLNVVAPSLEVYVDHASLPTLQQLMDIIKSEEENPTAQRYIAWGRIVPTDEQMKELNITSFALINNHTPADLVQEIVKQAQTKHRLNVKLSSNTAHSFDNLVPILKELNSFNNVTVTNIDLYDDGSAEYVNLYNWRDTLNKTDNLKIGKDYLEDVINGINEDTSNTGTSSVYNWQKLYPANYHFLRKDYLTLEPSLHELRDYIGDSLKQMQWDGFKKFNSKQQELFLSIVNFDKQKLQNEYNSSNLPNFVFTGTTVWGGNHEREYYAKQQINVINNAINESSPHYLGNSYDLFFKGHPGGGIINTLIMQNYPSMVDIPSKISFEVLMMTDMLPDAVAGIASSLYFTIPAEKIKFIVFTSTETITDRETALRSPLVQVMIKLGIVKEENVLFWA
modifications: C-terminal His6; Synthetic Psp26ST(15-501) A366G

How the values were obtained:
[1] = earlier reports (Ding 2011; Sun 2008); cited from earlier work
[2] = Sialyltransferase activity assay, GalNAcαSer as acceptor (HPLC); type: biochemical; conditions: 1 equivalent CMP-Neu5Ac was used; no NmCSS
Experimental: When LacβMU was used as an acceptor, the assay was performed in duplicate in 10 μL of Tris-HCl buffer (100 mM, pH 8.0) containing CMP-Neu5Ac (1 mM), LacβMU (1 mM), MgCl2 (20 mM), wild-type Psp2,6ST(15-501)-His6 or its mutant (0.3 μM). When an α-GalNAc-terminated acceptor was used, the assay was performed in duplicate in 10 μL of Tris-HCl buffer (100 mM, pH 8.0 for GalNAcαSer/Thr) or NaOAc-HOAc (100 mM, […]), MgCl2 (20 mM), wild-type Psp2,6ST(15-501)-His6 or its mutant (3.0 μM). Reactions were allowed to proceed at 20° C. for 20 min and stopped by adding 10 μL of cold ethanol. The analysis of sialylated product conversion was performed using the HPLC system as described above for sialyltransferase activity assay. The 4-methylumbelliferone (MU)-labeled fluorescent acceptor and the product formed were detected with excitation at 325 nm and emission at 372 nm. The 2-aminobenzoic acid (2AA)-labeled fluorescent acceptors and the products formed were detected with excitation at 315 nm and emission at 400 nm. The 9-fluorenylmethylcarbamate (Fmoc)-labeled fluorescent acceptors and the products formed were detected with excitation at 262 nm and emission at 313 nm.

[3] = One-pot two-enzyme (OP2E) sialylation with NmCSS, GalNAcαThr as acceptor; type: biochemical; conditions: 2.5 equivalents of Neu5Ac and 5.0 equivalents of CTP
Text: (§1) White bars: GalNAcαSer was used as an acceptor with 1 equivalent of Neu5Ac and 1.5 equivalents of CTP. Grey bars: GalNAcαSer was used as an acceptor with 2.5 equivalents of Neu5Ac and 5.0 equivalents of CTP. Black bars: GalNAcαThr was used as an acceptor with 2.5 equivalents of Neu5Ac and 5.0 equivalents of CTP.
In this system, CTP and Neu5Ac were used by NmCSS for the formation of CMP-Neu5Ac in situ (see also, Yu and Chen, et al. Bioorg. Med. Chem. 2004, 12, 6427-6435). CMP-Neu5Ac was used as the donor substrate for Psp26ST(15-501)-His6 or its mutants. […] For example, using 1 equivalent of Neu5Ac and 1.5 equivalents of CTP in the one-pot two-enzyme (OP2E) reaction (white bars in FIG. 6) improved the GalNAcαSer α2-6-sialylation reaction yields from less than 6% (1 equivalent CMP-Neu5Ac was used) (FIG. 5B) to 32-51% for W365A, W365G, W365S mutants. Similarly, the OP2E reaction improved the GalNAcαSer α2-6-sialylation reaction yields from 40% and 37% to 75% and 67% for A366G mutant and the wild-type enzyme, respectively. Increasing the concentrations of Neu5Ac and CTP to 2.5 and 5.0 equivalents further improved the reaction yields to more than 67% for Psp26ST(15-501)-His6 and its mutants ([…]). […] Therefore, in situ generation of CMP-Neu5Ac, the sugar nucleotide donor for sialyltransferases, was proven an efficient method to enhance the yields for sialylation reactions catalyzed not only by the wild-type enzymes but also sialyltransferase mutants.

[4] = One-pot two-enzyme (OP2E) sialylation with NmCSS, GalNAcαSer as acceptor; type: biochemical; conditions: 1 equivalent of Neu5Ac and 1.5 equivalents of CTP
Text: as §1
In this system, CTP and Neu5Ac were used by NmCSS for the formation of CMP-Neu5Ac in situ (see also, Yu and Chen, et al. Bioorg. Med. Chem. 2004, 12, 6427-6435). CMP-Neu5Ac was used as the donor substrate for Psp26ST(15-501)-His6 or its mutants. […] For example, using 1 equivalent of Neu5Ac and 1.5 equivalents of CTP in the one-pot two-enzyme (OP2E) reaction (white bars in FIG. 6) improved the GalNAcαSer α2-6-sialylation reaction yields from less than 6% (1 equivalent CMP-Neu5Ac was used) (FIG. 5B) to 32-51% for W365A, W365G, W365S mutants. Similarly, the OP2E reaction improved the GalNAcαSer α2-6-sialylation reaction yields from 40% and 37% to 75% and 67% for A366G mutant and the wild-type enzyme, respectively. Increasing the concentrations of Neu5Ac and CTP to 2.5 and 5.0 equivalents further improved the reaction yields to more than 67% for Psp26ST(15-501)-His6 and its mutants (black bars in FIG. 6). […]

[5] = Expression and Ni2+-NTA purification of soluble recombinant protein; SDS-PAGE of lysates; set-up: species or system Escherichia coli; conditions: for expression level, purified by Ni2+-NTA column: per liter of Escherichia coli culture, repeated expression in duplicates or triplicates
Experimental: The plasmids containing mutant genes were transformed into Escherichia coli BL21 (DE3). The Escherichia coli cells were cultured in LB-rich media (10 g L^−1 tryptone, 5 g L^−1 yeast extract, and 10 g L^−1 NaCl) supplemented with ampicillin (100 μg mL^−1). Overexpression of the mutants was achieved by adding 0.3 mM of isopropyl-1-thio-β-D-galactopyranoside (IPTG) to the Escherichia coli culture when its OD600 nm reached 0.8. The induced culture was incubated at 20° C. for 20 h with vigorous shaking at 250 rpm in a C25KC incubator shaker (New Brunswick Scientific, Edison, N.J.). His6-tagged mutant proteins were purified from the cell lysate. To obtain cell lysate, the cell pellet harvested by centrifugation at 4000 rpm for 2 h was resuspended in 20 mL (for cells obtained from one liter culture) of lysis buffer (pH 8.0, 100 mM Tris-HCl containing 0.1% Triton X-100). Lysozyme (50 μg mL^−1) and DNaseI (3 μg mL^−1) were added to the resuspended cells followed by shaking at 37° C. for 60 min. The lysate was obtained as the supernatant after centrifugation at 11,000 rpm for 20 min. Purification of His6-tagged proteins from the lysate was achieved using 10 mL column packed with Ni^2+-NTA agarose. The column was pre-equilibrated with 8 column volumes of binding buffer (5 mM imidazole, 0.5 M NaCl, 50 mM Tris-HCl pH 7.5). After loading the sample, the column was washed with 8 column volumes of the binding and 8 column volumes of washing buffer (20 mM imidazole, 0.5 M NaCl, 50 mM Tris-HCl pH 7.5). Protein was eluted using 8 column volumes of the elute buffer (200 mM imidazole, 0.5 M NaCl, 50 mM Tris-HCl pH 7.5). The fractions containing the purified enzyme were collected and stored at 4° C. Protein concentrations were quantified by bicinchoninic acid (BCA) protein assay kit according to manufacturer's instruction using bovine serum albumin (BSA) as the protein standard. The wild-type enzyme and A366G mutant were expressed, purified, and quantified in duplicates or triplets for at least three times. […]

Row | Molecule | expression level of soluble protein [1] [mg/L] | GalNAcαSer α2-6-sialylation reaction yield, sialyltransferase alone (FIG. 5B) [2] [%] | yield of Neu5Acα2-6GalNAcαThr from GalNAcαThr, OP2E [3] [%] | GalNAcαSer α2-6-sialylation reaction yield, OP2E [4] [%] | expression level, purified by Ni2+-NTA column [5] | expression level ([5]; general description) [mg/L]
1 | B1 | 25 | 37 | 88 | 67 | 18-40 mg per liter | 
2 | B2 |  | 40 | 93 | 75 | 72-110 mg per liter | 72 to 110
